This note sets out measurements from PMC2810291, “Identification and characterization of endonuclein binding proteins: evidence of modulatory effects on signal transduction and chaperone activity” (BMC Biochemistry, 2009).

This experiment addresses T1, recombinant endonuclein (human, UniProt Q13610 2-501).
T1 construct: human endonuclein, coding region Asn2-Ser501 of the 2309.2 cDNA, in the vector pT7-PL; also called IEF SSP 9502; PWP1 (yeast homologue's name)
Briefly: SPR; BIAcore 2000; endonuclein amine-coupled to a CM5 chip (3302 RU); analytes at 1 μM or 5 μM in 10 mM Hepes, 150 mM NaCl, 5 mM CaCl2, 1 mM EGTA, pH 7.4, 0.005% P20; control flow channel subtracted. The note with it: both partners purified.

B1: recombinant TIP-1 as fusion protein with glutathion S-transferase (natural protein, UniProt O14907 1-124, looked up)
chain: MSYIPGQPVTAVVQRVEIHKLRQGENLILGFSIGGGIDQDPSQNPFSEDKTDKGIYVTRVSEGGPAEIAGLQIGDKIMQVNGWDMTMVTHDQARKRLTKRSEEVVRLLVTRQSLQKAVQQSMLS
notes: TIP-1, coding region of the cDNA amplified with primers from the start codon (ATG-TCC-TAC-ATC-CCG-GGC-CA) to the stop codon, in pGEX-4T3; pGEX-4T3 is known to place GST at the N-terminus; also called GST-TIP-1; source: E. coli, purified (pGEX, according to the manufacturer)
B1: the binding result is “binds”.
